Laboratory results as given in the nanobody polyreactivity screen of Harvey et al. (2022).

Experiment: yeast display, Sf9 membrane polyspecificity reagent, FACS + sequencing; frameworks hold sequencing errors
Summary of the method: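 Using colony PCR, genes from sorted yeast display clones were amplified, then sequenced on MiSeq at 2 × 250 and filtered by CDR length. The clones had been stained with 10% biotinylated, detergent-solubilized Sf9 membrane reagent for 1 hour at 4 °C and sorted by FACS into low and high (top ~1%) gates on anti-HA and streptavidin fluorescence. Polyreactivity labels come from the gate of origin.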

Sequence | polyreactivity (PSR sort gate)
QVQLVESGGGLVQAGGSLRLSCAATGLILGRNAMGWYRQAPGKERELVAAITGSGSTNYADSVKGRFTISRDNAKNTVYLQMNSLKPEDTAVYYCAADVRLDPTGLDYLDYDYWGQGTQVTVSS | low polyreactivity
QVQLVESGGGLVQAGGSLRLSCAASGRTFYIYVMGWYRQAPGKERELVAGITWRGGITYYADSVKGRFTISRDNAKNNVYLQMNSLKPEDTAVYYCAVDDLGSEYDYWGQGTQVTVSS | low polyreactivity
QVQLVESGGGLVQAGGSLRLSCAASGRTIRYNAMGWYRHAPGKERELVAAITGSGGSTYYADSVKGRFTISRDNAKNTVYLQMNSLKPEDTAAYSCNAVGIWFPIRLIVPYDYWGQGTQVTVSS | low polyreactivity
QVHLVESGGGLVQAGGSLRISCAASGLTFQRYAMGWYRQAPGKERELVASITGNGGSTYYADSVKGRFTISRDNAQNSVYLQMNSLKPEDTAVFYCNARRYVRTSQQPLYDYWGQGTQVTVSS | high polyreactivity
QVQLVESGGGLVQAGGSLRLSCAASGRTFKAYAMGWYRQAAGKEREFVPAITKRGGSTYYADSVKGRFTISRDNAKNTVYLQMNSLKPEDTAVYYCAVGLGRYTHTSVPIPSYDYWGQGTQVTVSS | high polyreactivity
QVQLVESGGGLVQAGGSLRLSCAASGIIFSFYAMGWYRQAHGKERELVADITLSGGRTYYADSVKGRFTISRDNAKNTVYLQMNSLKPEDTAVYYCNADTYERGDYWGQGTQVTVSS | high polyreactivity
QVQLVESGGGLVQAGGSLRLSCAASGRIFYLYAMGWYRQAPGKERELVAAITNSDTSTYYADSVKGRFTISRDNAKNTVYLQMNSLKPEDTAVYYCAVSTQYYYFDYYYWGQGTQVTVSS | high polyreactivity
QVQLEESGGGLVQAGGSLRLSCAASGSTFYGYGMGWYRQAPGKERELVAAITGSGDTTYYADSVKGRFTISRDNAKNTVYLQMNSLKTEDTAVYYCNARWHAEYDYWGQGTQVTVSS | low polyreactivity
QVQLVESGGGLVQAGGSLRLSCAASGLIFRYYAMGWYRQAPGKERELVAVISRRGDSTYYADSVKGRFTISRDNAKNTVYLQMNSLKPEDTAVYYCAAQAFVSYFKFRGGYWGQGTQVTVSS | high polyreactivity
QVQLVESGGGLVQAGGSLRLSCVASGRTFSRYAMGWYRQAPGKERELVAAISRRGGSTYYADSVKGRFTISRDNAKNTVYLQMNRLKPEDTAVNYCAAGYITCGSGNWVVTPYDYWGQGTQVTVSS | high polyreactivity
QVQLVESGGGLVQAGGSLRLSCAASGRIFDGNVMGWYRQAPGKERELVAAISRSGVRTYYADSVKGRFTISRDNAKKTVYLQMNSLKPEDTAVYYCAADVYRQFYPFKSDYWGQGTQVTVSS | high polyreactivity
QVQLVESGGGLVQAGGSLRLSCAASGLIFYKYAMGWYRQAPGKERELVAAITSGGSTNYADSVKGRFTISRDNAKNTVYLQMNSLKPEDTAVYYCNADYHPYLVVRWWYPPVDYWGQGNQVTVSS | low polyreactivity
QVQLVESGGGLVQAGCSLRLSCAASGSIFKRYTMGWYRQAPGKERELVAAISSRGGSTYYADSVKGRFTISRDNAKNTVYLQMNILKPEDTAVYYCNTKLHDGYGGWRYDYWGQGTQVTVSS | high polyreactivity
QVQLVESGGGLVQAGGSLRLSCAASGFIFSRYAMGWYRQAPGKERELVAAINLSGTSTYYADSVKGRFTISRDNAKNTVYLQMNSLKPEDTAVYYCAATSSYIYPYGYWGQGTQVTVSS | high polyreactivity
QVQLVESGGGLVQAGGSLRLSCAASVFTFTRYVMGWYRQAPVKERELVAAISGSGGSTNYADSVKGRFTISRDNAKNTVYLQMNSLKPEDTVVYYCAARFVGSRYRFDYWGQRTQVTVSS | high polyreactivity
QVQLVESGGGLVQAGGSLRLSCAASGRTFRTYTMGWYRPAPGKERELVAAISKRGSSTYYADSVKGRFTISRDNAKNTVYLQMNSLKQEDTAVYYCAARSWLSNSPYGYWGQGTQVTVSS | high polyreactivity
QVQLVESGGGLVQAGGSLRLSCAAYGSTFVSNAMGWSRPAPGKERELVAAISSSGGSTYYADSVKGRFTISRDTATNTVYLQMNSLKPEDTAVYYCVDYYNGYTHNYNYWGQGTQVTVSA | low polyreactivity
QVQLVESGGGLVQAGGSLRLSCAASGIILYGYARGWYRPAPGKESELVAAISRRGGITYYADTVKARYTISRDNAKNSVYLQMNSLKPEDTAVYYCAADINRRPSYHPDYEYWGQGTQVTVSS | high polyreactivity
QVQLVESGGGLVQAGGSLRLSCAASGRTFAIYVMGWYRQAPGKERELVAAISRSGGNTYYADSVKGRFTISRDNAKNTVYLQMNSLKPEDTAVYYCAARVRERYYWGQGTQVTVSS | high polyreactivity
QVQLVESGGGLVQAGGSLRLSCAASGRIFWVYAMGWYRQAPGKEREFVADITWTGGSTYYADSVKGRFTISRDNAKNTVYLQMNSLKPEDTAVYYCAADSWSNYDYWGQGTQVTVSS | high polyreactivity
QVQLVESGGGLVQAGGSLRLSCAASGITFLKNAMGWYRQAPGKERELVAAISSSGGSTYYADSVKGRFTISRDNAKNTVYLQMNSLKPEDTAVYYCAAYPTSTVVDDFDYWGQGTQVTVSS | high polyreactivity
QVQLVESGGGLVQAGGSLRLSCAASGFTNLNSMGRYRQAPGKERELVADISASGGTTYYADSVKGRFTISLDNAKNTVYLQMNSLKPEDTAVYYCAARRYYPRWYYWIRFDYWGQGTQVTVSS | high polyreactivity

Sequence | polyreactivity (PSR sort gate)
QVQLVESGGGLVQAGGSLRLSCAASGSIFVWYDLGWYRQAPGKERELVATISLSGVSTYYADSVKGRFTISRDNAKNTVYLQMNSLKPEDTAVYYCAADFVEQGEDDYWGQGTQVTVSS | low polyreactivity
QVQLVESGGGLVQAGGSLRLICAASGRIFYYNAMGWYRQAPGKERELVAVITRSGGRTFYADSVKGRFTISRDNAKNTGYLQMNSLKPEDTAVYYCAARYRYYPVTTRGYYWGQGTQVTVSS | high polyreactivity
QVQVVESGGGLVQAGGSHRLSCAASGSTFIRYPMGWYRQAPGKERELVAAITWSGGSTYYADSVKGRFTISRDNAKNTVYLQMNSLKPEDTAFYYCAARGPSLSNYRGRMYYWGQGTQVTVSS | high polyreactivity
QEQLVDSGGGLVQAGGSLRLSCAASVRIFGRYVMGWYRQAPGKERELVAAITSRDDSTYYADSVKGRFTISRDNAKNTVYLQMNSLKPEDTAVYYCAATWGRGYDYCGQGTQVTVSS | high polyreactivity
QVQLVESGGGLVQAGGSLRLSCAASGRIFSRYTMGWYRQAPGKERELVAAISRRGGSTNYADSVKGRFTISRDNAKNTVYLQMNSLKPEDTAVYYCAAHGPFVRSQSLRSGRFDYWGQGTQVTVSS | high polyreactivity
QVQLVESGGGLVQAGGSLRLSCSASGRIFPRYAMGWYIQEPGKEMELFATISSGGSTYYADSVKGRFTITRDNAKNTVYLQMNSLKPEDTADYYCADRKGQYTVINGMDYWGQGTQVTVSS | low polyreactivity
QVQLVESGGGLVQAGGSLRLSCAASGGNFWIYTMGWYTQAPGKERELVASITRGGSTYADSVKGRFTISRDKAKNTVYLQMNSLKPEDTAVYYCNAEFRYPWFRWEYDHWGQGTQVTVSS | low polyreactivity
QVQLVESGGGLVQAGGSLRLSCAASGSTFEVYTMGWYRQAAGKERELVADITWSGGNTYYADSVKGRFTISRDNAKNTVYLQMNSLKPEDTAVYYCAADYYHKTVYWYDYWGQGTQVTVSS | low polyreactivity
QVQLVESGGGLVQAGGSLRLSCAASGRIFIANTMGWYRQAPGKERELVAAITQRGDSTYYADSVKGRFTISRDNAKNTVYLQMNSLKPVDTAVYYCAARSFRKYYIRYDYWGQGTQVTVSS | high polyreactivity
QVQLVESGGGLVQAGGSLRLSCAASGYTIIQYAMGWYRQAPGKERELVAGMTWSGGSKYADSVKGRFTISRDNAKNTVYLQMNSLNPEDTAVYYCAAVPYSYTYVYLRHYDYWGQGTQVSVSS | low polyreactivity
QVQLVESGGGLVQAGGSLRLSCAPSGSIYDDYAMGWYRQAPGKERELVAAISSSGTSTYYADSVKGRFTISRDNAKNTVYLQMIRLKPEDTAGYYCAARSAILKSGYLMDYWGQGTLVTVSS | low polyreactivity
QVQLVESGGGLVQAGGSLRLSCAASGFTFHKNAMGWYRQAPGKERELVAAITYRGGSTSYADSVKGRFTISRDNAKNTFYLQMNSLKPEDTAVYYCAAELRPYITYDGPRKKFYYWGQGTQVTVSS | high polyreactivity
QVQLVESGGGLLQAGGSLRLSFAASGFTFGRYAMGWYRQAPGKERELVAAISTSGGRTYYADSVKGRFTISRDNAKNTVYLQMNSLKPEDTAVYYCAAEQRRFTGYDYWGQGTQVTVSS | high polyreactivity
QVQLVESGGGLVQAGGSLRLSCAASGFIFPTNVMGWYRQAPGKEREFVASITWRGGGTYYADSVKGRFTISRDNAKNTVYVQMNSLKPEDTAVYYCAAGRSWSSYWKYDYWGQGTQVTVSS | low polyreactivity
QVQLVESGGGLVQAGGSLRLSCAASGRTLEQYAMGWYRQAPGKERELVAAINKSGARTYYADSVKGRFTISRDNAKNSVYLQMNSQKPEDTAVYYCNTVGPSYLFDYWGQGTQVTVSS | high polyreactivity
QVQLVESGGGLVQAGGSLRLSCAASGRIFYWNPMGWYRQAHGKERELVAAISWSGGSTYYADSVKGRFTISRDNAKNTVYLQMNRLKPEDTAVYYCARKYRSPISALMTGDYWGQGTQVTVSS | low polyreactivity
QVQLVESGGGLVQAGGSLRLSCAASGSTFWGNAMGWYRQAPGKERELVAAISTSDTSTYYADSVKGRFTISRDNAKNTVYLQMNSLKPEDTAVYYCAAEWYYGEKYDYWVQGTQVTVSS | low polyreactivity
QVQVVESGGALVQAGGSLRLSCAASGRTFDWNAMGWYRQAPGKERELVAAITYSGGGTYYADSVKVRFTISRDHATNTVYLQMNSLKPEDTAVYYCAAGYPGTWSYYYWGQGTQVTVSS | low polyreactivity
QVQLVESGGGLVQAGGSLRLSCAASGIIFVDNDMGWYRQAPGKERELVADISDSGGSTNYADSVKGRFTISRDNAKNTVYLQMNSLKPEDTAVYYCAADSADPTEYDYWGQGTQVSVSS | low polyreactivity
QVQLVESGGGLVQAGGSLRLSCAASGRIFRHKTLGWYRQAPGKEREMVAGITASGGDTYYADSVKGRFTISRDNAKNTVYLQMNSLKPEDTAVYYCATSQYGYRSWPGLYYWGQGTQVTVSS | low polyreactivity
QVQLVESGGGLVQAGGSLRLSCAASGIIFYDNAMGWYRQAPGKERELVAAISWGGGDTYYADSVKGRFTISRDNAKNTVYLQMNSLKPEDTAVYYCAAGNLPDYDYWGQGTQVTVSS | low polyreactivity
